Assay results as given in US20250250357A1 (NANJING ZAIMING PHARMACEUTICAL, published 2025).

T1: human MSLN-R1-his protein (human, UniProt Q13421 296-390)
T1 construct: Region 1 of human mesothelin, made in HEK293E cells, His-tagged; also called human MSLN-R1 protein; hMSLN-R1-his; not shown: His tag
T1 chain: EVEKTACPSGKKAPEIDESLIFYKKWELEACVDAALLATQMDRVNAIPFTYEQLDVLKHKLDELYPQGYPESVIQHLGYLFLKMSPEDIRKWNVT


What was measured:
[1] = molecular target: T1, human MSLN-R1-his protein; test: ELISA on coated MSLN-R1; antibody 0.001 nM
Experimental: (§1) The plate was sealed with a plastic film and incubated at 4° C. overnight. The next day, the plate was washed twice with PBST, and a blocking buffer [PBS+2% (w/w) BSA] was added for blocking at room temperature for 2 h. The blocking buffer was discarded, and a chimeric antibody or negative control antibody serially diluted from 100 nM was added at 50 μL/well. After incubation at 37° C. for 2 h, the plate was washed 3 times with PBST. […] After incubation at 37° C. for 2 h, the plate was washed 5 times with PBST. A TMB substrate was added at 50 μL/well for incubation at room temperature for 5-10 min, and then a stop solution (1.0 N HCl) was added at 50 μL/well.

[2] = molecular target: T2, human MSLN-R2-his protein (human, UniProt Q13421 391-486); test: ELISA on coated MSLN-R2; antibody 100 nM
T2 construct: Region 2 of human mesothelin, made in HEK293E cells, His-tagged; also called human MSLN-R2 protein; hMSLN-R2-his; not shown: His tag

[3] = molecular target: T3, human MSLN-R3-his protein (human, UniProt Q13421 487-598); test: ELISA on coated MSLN-R3; antibody 0.01 nM
T3 construct: Region 3 of human mesothelin, made in HEK293E cells, His-tagged; also called human MSLN-R3 protein; hMSLN-R3-his; not shown: His tag

[4] = molecular target: T2, human MSLN-R2-his protein; test: ELISA on coated MSLN-R2; antibody 10 nM
[5] = molecular target: T2, human MSLN-R2-his protein; test: ELISA on coated MSLN-R2; antibody 1 nM
Experimental: as §1

[6] = molecular target: T2, human MSLN-R2-his protein; test: ELISA on coated MSLN-R2; antibody 0.1 nM
Experimental: as §1

[7] = molecular target: T1, human MSLN-R1-his protein; test: ELISA on coated MSLN-R1; antibody 1 nM
Experimental: as §1

[8] = molecular target: T3, human MSLN-R3-his protein; test: ELISA on coated MSLN-R3; antibody 0.1 nM
Experimental: as §1

[9] = molecular target: T2, human MSLN-R2-his protein; test: ELISA on coated MSLN-R2; antibody 0.01 nM
[10] = molecular target: T1, human MSLN-R1-his protein; test: ELISA on coated MSLN-R1; antibody 0.0001 nM
Experimental: as §1

[11] = molecular target: T3, human MSLN-R3-his protein; test: ELISA on coated MSLN-R3; no antibody (blank)
[12] = molecular target: T2, human MSLN-R2-his protein; test: ELISA on coated MSLN-R2; antibody 0.0001 nM
Experimental: as §1

[13] = molecular target: T3, human MSLN-R3-his protein; test: ELISA on coated MSLN-R3; antibody 100 nM
Experimental: as §1

[14] = molecular target: T3, human MSLN-R3-his protein; test: ELISA on coated MSLN-R3; antibody 10 nM
Experimental: as §1

[15] = molecular target: T1, human MSLN-R1-his protein; test: ELISA on coated MSLN-R1; antibody 0.01 nM
Experimental: as §1

[16] = molecular target: T3, human MSLN-R3-his protein; test: ELISA on coated MSLN-R3; antibody 0.0001 nM
Experimental: as §1

[17] = molecular target: T1, human MSLN-R1-his protein; test: ELISA on coated MSLN-R1; antibody 0.1 nM
Experimental: as §1

[18] = molecular target: T1, human MSLN-R1-his protein; test: ELISA on coated MSLN-R1; antibody 100 nM
Experimental: as §1

[19] = molecular target: T1, human MSLN-R1-his protein; test: ELISA on coated MSLN-R1; no antibody (blank)
Experimental: as §1

[20] = molecular target: T3, human MSLN-R3-his protein; test: ELISA on coated MSLN-R3; antibody 0.001 nM
Experimental: as §1

[21] = molecular target: T2, human MSLN-R2-his protein; test: ELISA on coated MSLN-R2; antibody 0.001 nM
Experimental: as §1

[22] = molecular target: T1, human MSLN-R1-his protein; test: ELISA on coated MSLN-R1; antibody 10 nM
[23] = molecular target: T2, human MSLN-R2-his protein; test: ELISA on coated MSLN-R2; no antibody (blank)
Experimental: as §1

[24] = molecular target: T3, human MSLN-R3-his protein; test: ELISA on coated MSLN-R3; antibody 1 nM
Experimental: as §1

T2 sequence (Q13421 other isoform, or with tags, fused parts or gaps): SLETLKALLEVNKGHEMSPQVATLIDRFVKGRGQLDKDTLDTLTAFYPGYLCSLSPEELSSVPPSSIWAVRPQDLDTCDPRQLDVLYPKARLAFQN
T3 sequence (Q13421 495-606): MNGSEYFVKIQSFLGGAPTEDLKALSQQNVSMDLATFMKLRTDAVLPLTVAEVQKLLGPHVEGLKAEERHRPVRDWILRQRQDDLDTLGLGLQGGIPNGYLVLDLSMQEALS

Binder	OD450 [1]	OD450 [2]	OD450 [3]	OD450 [4]	OD450 [5]	OD450 [6]	OD450 [7]	OD450 [8]	OD450 [9]	OD450 [10]	OD450 [11]	OD450 [12]	OD450 [13]	OD450 [14]	OD450 [15]	OD450 [16]	OD450 [17]	OD450 [18]	OD450 [21]	OD450 [23]	also measured
S009-F8-4.5 (antibody, human IgG1, kappa, V domains shown) VH: QVQLQQPGAELVKPGASVKLSCKASGYTFTIYWMHWVKQRPGQGLEWIGMIHPNSGNTNYNEKFKSKATLTVDKSSSTAYMQLSSLTSEDSAVYYCSLIHWYFDVWGTGTTVTVSS VL: QIVLTQSPAIMSASPGEKVTMTCSASSSVSYMYWYQQKPGSSPRLLIYDTSNLASGVPVRFSGSGSGTSYSLTISRMEAEDAATYYCQQWSSYPLTFGAGTKLELKR	0.05 OD450	0.08 OD450	0.04 OD450	0.06 OD450	0.05 OD450	0.05 OD450	0.05 OD450	0.05 OD450	0.05 OD450	0.05 OD450	0.06 OD450	0.05 OD450	0.12 OD450	0.07 OD450	0.05 OD450	0.05 OD450	0.05 OD450	0.24 OD450	0.05 OD450	0.05 OD450	OD450 [19]: 0.05 OD450; OD450 [20]: 0.05 OD450; OD450 [22]: 0.09 OD450; OD450 [24]: 0.05 OD450
S009-F8-5.15 (antibody, human IgG1, kappa, V domains shown) VH: QVQLQQPGTELVKPGASVKLSCKASGYTFTSYWMHWVKQRPGQGLEWIGHSNPSNGGTNYNEKFKSKATLTVDKSSSTAYMQLSSLTSEDSAVYYCARWVRGSNYEYFDVWGTGTTVTVSS VL: DIVMTQSQKFMSTTVGDRVSIICKASQNVGSAVAWCQQKPGQSPKLLIYSASNRYTGVPDRFTGSGSGTDFTLTISNMQSEDLADYFCQQYSSYPLTFAGGTKLEIKR	0.05 OD450	0.05 OD450	0.04 OD450	0.05 OD450	0.04 OD450	0.04 OD450	0.68 OD450	0.04 OD450	0.04 OD450	0.04 OD450	0.05 OD450	0.05 OD450	0.06 OD450	0.05 OD450	0.05 OD450	0.04 OD450	0.12 OD450	2.29 OD450	0.05 OD450	0.05 OD450	OD450 [19]: 0.05 OD450; OD450 [20]: 0.05 OD450; OD450 [22]: 1.65 OD450; OD450 [24]: 0.04 OD450
S009-F8-7.5 (antibody, human IgG1, kappa, V domains shown) VH: DVQLQESGPGLVKPSQSLSLTCSVTGYSITSGYYWNWIRQFPGNKLEWMAYIRYDGSNNYNPSLKNRISIIRDTSKNQFFLRLNSVTTEDTATYYCAKSYYGMDDWGQGISVTVSS VL: DIQMTQSPASLSASVGETVTITCRTSGDIHNYLAWYQQKQGKSPQLLVYKAKTLENGVPSRFTGSGSGTQFSLKIDSLQPEDFGTYYCQHFWTTPYTFGGGTKLEIKR	0.05 OD450	2.32 OD450	–	2.18 OD450	1.85 OD450	1.18 OD450	0.05 OD450	–	0.31 OD450	0.04 OD450	–	0.06 OD450	–	–	0.04 OD450	–	0.05 OD450	0.12 OD450	0.09 OD450	0.05 OD450	OD450 [19]: 0.05 OD450; OD450 [22]: 0.06 OD450
S009-F8-8.22 (antibody, human IgG1, kappa, V domains shown) VH: EVQLQQSGPELVKPGASVKMSCKASGYTFTDYIIHWVKQSHGKSLEWIAYIFPNNGGTGYNQKFRGKATLTVNKSSSTAYMELRSLTSEDSAVYYCARWRLRQYFDVWGTGTTVTVSS VL: DIVMTQSQKFMSTIVGDRVSITCKASQNVGTAVAWYQQKPGQSPKLLIYSASNRYTGVPDRFTGSGSGTDFTLTISNMQSEDLADYFCQQYSSYPLTFGGGTKLEIKR	0.16 OD450	0.09 OD450	0.04 OD450	0.05 OD450	0.04 OD450	0.04 OD450	2.46 OD450	0.04 OD450	0.04 OD450	0.08 OD450	0.04 OD450	0.05 OD450	0.15 OD450	0.08 OD450	0.61 OD450	0.04 OD450	1.78 OD450	2.63 OD450	0.05 OD450	0.04 OD450	OD450 [19]: 0.06 OD450; OD450 [20]: 0.04 OD450; OD450 [22]: 2.63 OD450; OD450 [24]: 0.05 OD450
S009-F8-9.16 (antibody, human IgG1, kappa, V domains shown) VH: EVHLQQSGPVLVKPGASVKMSCKASGYTFTDYFMNWVKQSHGKSLEWIGVINPHNGYVNYNQKFQGRATLTVDKSSSTVYMELNSLTSEDSAVYHCARSAESAWFAYWGQRTLVTVSA VL: DVLMTQTPLSLPVSLGDQVSISCRSSQSIVHVKGNTYLEWYLQKPGQSPELLIYKVSNRFSGVPDRFSGGGSGTDFTLKISRVEPEDLGVYYCFQGSHLPYTFGGGTKLEIKR	0.04 OD450	0.07 OD450	0.5 OD450	0.05 OD450	0.04 OD450	0.04 OD450	0.04 OD450	1.38 OD450	0.04 OD450	0.04 OD450	0.03 OD450	0.04 OD450	2.4 OD450	2.03 OD450	0.04 OD450	0.06 OD450	0.04 OD450	0.09 OD450	0.04 OD450	0.05 OD450	OD450 [19]: 0.04 OD450; OD450 [20]: 0.11 OD450; OD450 [22]: 0.05 OD450; OD450 [24]: 2.23 OD450
Tab106 (YP218, hIgG1) (antibody, V domains shown, also called YP218 human IgG1 antibody) VH: QQQLEESGGGLVKPEGSLTLTCKASGFDLGFYFYACWVRQAPGKGLEWIACIYTAGSGSTYYASWAKGRFTISKASSTTVTLQMTSLAAADTATYFCARSTANTRSTYYLNLWGPGTLVTVSS VL: DVVMTQTPASVSEPVGGTVTIKCQASQRISSYLSWYQQKPGQRPKLLIFGASTLASGVPSRFKGSGSGTEYTLTISDLECADAATYYCQSYAYFDSNNWHAFGGGTEVVVRT	–	0.22 OD450	0.52 OD450	0.06 OD450	0.04 OD450	0.04 OD450	–	1.38 OD450	0.04 OD450	–	0.04 OD450	0.04 OD450	2.28 OD450	1.81 OD450	–	0.09 OD450	–	–	0.04 OD450	0.04 OD450	OD450 [20]: 0.14 OD450; OD450 [24]: 1.99 OD450
